Test results reported in the domain aggregation screens of Martell et al. (2025).

Test: soluble fraction after stress (log2 fold change); higher = more stays soluble; pooled small domains, quantitative proteomics
Conditions: stress: 50 degC
Procedure, shortened: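 The stress applied to every library was 50°C. These custom libraries of small protein domains were pooled and measured at high throughput with quantitative proteomics as the read-out. Aggregation propensity is expressed as the base-two logarithm of the fold change in how much of each protein remains soluble. The higher the value, the more of that protein stays in solution.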

| Sequence | soluble fraction (log2) |
| --- | --- |
| HMWSAREQVVNSLREAILTSELKAGERLVLSDLSARLGVSVTPIREALQSLEREGLVQLMPHQEAVVV | 0.155 |
| HMPDPVHAAYLRLAVLLTEQAIGPQVTEQQIRDRFALTRRQTSDLMGRLIREGIAEKRAGYGWNINTELTA | -0.845 |
| HMIDELNVGDIRFYLNRYGKEIQIEIIRIGDDGSVYARTMADNALFRVPEARLKNIGEKVPAEEVQRG | -0.742 |
| HMDSLNWVEKIINTLPEQQRLIIQMRDIEQYEFAEIAKILEMNETAIRVALSRARKTIREFMIKTH | -1.07 |
| HMSGLLTTSKLAQKHKMKTEPMLEKLTAAGYLEWRDDKHSLTEQGKKAGGQFKTGRFGAYFLWPEDLV | -0.259 |
| HMRPEARAASLSDEERKIFDYLAANGEKTIDNISVAVKMSAADILKNITLMSAKGLVYMPSAGRYGVKGN | -0.00201 |
| HMDARSTHIAAIHVLKSKLQLQDSDYRALLLTLTGQTSSKDLSEHQRRAVRNHMQQLAERMGVVQ | -0.533 |
| HMHPDHRTATVPDAAAGRRFDAVLAELFPQFSRSKLTTWIKSGEVLLNGEVPRPRDAVVGGETVSLNVVL | -0.275 |
| HMLHVRSALMSELDGIEGIGEKRKRLLFDAFITRDAIAAATLEQLMAVKGMNRPSAEAVHKHFHG | -0.53 |
| HMQDVVFTVDKDQTGAEIGDMLYEKGIISSPTTFRLALRLTGSMDKLQQGYYQIPQNASLRQVIALLQKG | -0.393 |
| HMELVIGESLAVELLRPGKEDGQALGYLPDGSMVVVNNGRAFVGKRVTAEIIGVIRSAGGKMVFSNLLGE | -2.68 |
| HMGDIMLLFKENGKVYFLVGNQYTYVKNPTELSAIKTMMKQAGYDTHEHTNTTQVAYIKRLATE | -2.11 |
| HMEPVFSDPARQTLYQEVMELPAKYRVPLYLYYYEGYKVDEVGELLGLNASTVQTRLARARAKLKIQL | -0.627 |
| HMDEEQIASRRALIMRAAREIMETQGMEALSIRKIAAMIQQTPGIIYHYFSGKEELMLAVVQEGYH | 0.111 |
| HMLDLPVRTINGRQYYYYEVRNRETVYGLSKRLGVTREEIVRYNPSMADGLKRGAILYFPVDEFSDRI | -0.281 |
| HMKTPETSEYVVQAGDSLRRILTERYGAKEQDLPYLYRQFRLLNPKVSSLDNIHAGTKVRIPLVASVL | 0.132 |
| HMENIDVGQDYKVTMNTIQNLMKTGLVTGTQYKELLREMGVHSGMGAITAQQHQIALDFLNKTMDSA | 0.285 |
| HMTIPSYAEAVRYVRRQPRINTSTLADGLGIRWSLALDYLERMARSGVVGAIEDDGWWPVAR | -0.71 |
| HMGEAAIYRINILINNLNVRSGPGTLYPRLRRADFPGEYDIFEEKNGFGRISNTKSEWVSLNTQYVQRLT | -0.549 |
| HMGRHSPLSIEQKEQLKTEIVALQQQRGGGRVTAVNIAELIQQKFNVVYNPNSLYKLLKQIGMSWV | -1.2 |
| HMSQSYHLADRGQSLGTLDYQAVLVGLATGRLSPDTLSWQEGEAGWVALRQRPEFASGVSAVASL | 0.0116 |
| HMHKPLRILVYEELRMLIMTGQIKPGTRMMEIDLAESMGVSRTPVREAIRQLEKDNLVTIEPRRGAYVSD | -2.45 |
| HMSQDTLIGRVGVIVIGQARTGSPAQVRVKDGFGQTHYVMAEPDSEGVLKQGEAVLLVSLEGNTFKAILNP | -0.286 |
| HMTIKNHIDEILKKEPFILENIKNGLINISALARQIEPQLSRKVGKKLNVNAIIMTIKRMEIDQLNK | -0.989 |
| HMNGLDSVLRNWARQTLASGGENLLGDLTDHVTRLIISEALIMTGGNRTRAAELLGLSRPTLLAKMDKLNL | -1.45 |

| Sequence | soluble fraction (log2) |
| --- | --- |
| HMAFDDAHYKDMITSYLKKFKKGNRSEIENLIIPKLSEVLVEKQKKDKVKNLLQALRKDNQIRLKGKYWYL | 0.135 |
| HMRKTLSQEAYEKIKQNLEDGVYQGYINGRQVARDLDIGFTPVREAFLQLQSEGLIRKEDNVGYFV | 0.139 |
| HMPSHALFWTLLKEVPGYDPHYKDVIKEGIVHEHSGGRTTSLSEMYTKYPREYSLMIEAMKG | -0.487 |
| HMGQSKNERMLELVELLNKASRSYYQDAQEIMSNYEYDRLYDELQNLEKELGITLSNSPTVN | -0.0536 |
| HMKHFTYEEMELMSIYDPGTREGLIANLEEMRGYLEPDETELRELTDSALEKLRELSDADYEQLELI | -0.476 |
| HMPATPDATVQAVQQRLNELGYDVGSADGLMGRGTRSAIIAFQQDRGLAATGVADQALLLQLQP | 0.208 |
| HMLEVTQTDVKMYTTSGTPVYAAPDLNSAIVVYLERFVNVTVTGITDNGFYRVNLNGDYYIPGPYLISSV | -0.369 |
| HMTKIDYSINQIYSLRNIENITIVLKDKRSFTGKILKIYWQNGSKIILFTTETRNYKFKEYEISEIYKS | -0.268 |
| HMVNYKEILRLSAEGNSQRQIAAGSGNSRNTVIEVLEAARARGITWPLDEPVTNEQLEAILFPNRY | 0.134 |
| HMTSHPTHTILDGKVHVFMRDGSPFWWGGFHFKGKYLRTSTKQKNLDSAKTIAQQWYFQKQTEIASGE | -2.67 |
| HMDTFNVIARQEIDGILYEYKIMTVEDYKNQSPENLAVIYENIKAVMEQYDLSEDDADAILVDLLG | -1.12 |
| HMPVLDETVPAALDGERIDRVVALLADVSRNRAGIAIAAGSVRLDGAVVTQRSRKVRADEELVVDGLER | -0.015 |
| HMIKLTVRQQEILDLIARSIDQTGFPPTRAEIAAELGFKSVNAAEEHLQALARKGVIEMVPGISRGIRLVQ | -0.395 |
| HMNIGIVSLAAVPMRKEPSDRAEMVNQILFGETFDVLEEQEKWTLVQLHHDAYQGWIDRKQWDYASGIAD | -1.01 |
| HMQGVNLTETEKNFIAQVLSPLLKQGQSLYQIRTNHPEIKLSVKTLYTYIESGIFKESGINNFSLRRQ | 0.0431 |
| HMKKAIYPGSFDPLTLGHIDIIKRASGIVDELVVGVLNNSAKNSLFSLDERVSMIEEMTKDLPNVSVTSFD | 0.136 |
| HMQQFGANVRLIRKARQMSIKQLSELSGVSQTMISEVERGLKIPTIDVAGKIAAALGIDLTNLMG | -0.465 |
| HMSEQVQLQAQVEDDLIGKRLDQVVAQLFPDYSRSRLQGWIKDGSLTVDGESRRPRDKMMGGEVVRVEATL | 0.0984 |
| HMATKVSSGATVRDVADLLGLSSAELIKKLMMMGEMATLTQTLTDESIKSIADEYDRKIEIVSAAE | 0.0948 |
| HMRTVEQFQIRKIYAISNALGISDSRADEDELHVLVSGLTGKDSIKELTYREASVVIERLEELQ | -2.54 |
| HMKEEVEILGGKATIYTNDYGVWQFRLWLTTDNKYVRKSLRTKVKDYAITEGEKLYIQIRSDIEKGIKYY | -1.13 |
| HMELLPFEFARANRVLLRVNESDLVVSPDANHSAVTEILRLNNNIETIKSVDAEAFDKILSSIYSG | -0.765 |
| HMGIGSTLTDGVRVYASDDEIVVNAPAESDVRIFNAGGAQLYAGRVADVRVAVAKGLYVVTVDGRSTKITV | 0.00295 |
| HMESENANVNRAMLTGIASMHAGQLETALNKFNEVIQLAPDFAEGWNKRATIFYLMKKFDRSVNDIAQTLK | -0.0738 |
| HMKNTFGLTEREMEVLALIVDGLSNPEIAEKLFITRATAKAHVHSILQKLYVDDRTQAAVTAMREGL | -1.23 |

| Sequence | soluble fraction (log2) |
| --- | --- |
| HMRAPEIEAARSDLDVGQTVQIVRHLHGNQYEVFYRGAQWQAEAVGSSGANDAQTAVITGKNGNILLIQI | -0.0658 |
| HMSLSIKINHESVGLRLDQFLQEHYYKQQSRSYVQHAIKEGYILVNGQSVKNGYMLKLDDLIELEAI | -1.59 |
| HMDQTKYDAIITEAKKLTAEGQYKESEEKLATIPVSDLGKPHYSIVKETVEKLNNQNNEGLKRQEEVAVE | -0.02 |
| HMTMQTAEQESRLEQKLIDLSVGIDRFEGYSRPHGQLIASIADRIGTRLGMAAHDRFYMQQAAL | 0.107 |
| HMEVSEGEIREKVESVFSSNPRQAYNYKQISKKLNINDKSERQIVWDVLRKLAGSGKIQEVEHGRFRARAE | 0.122 |
| HMSNPADDVVDLLRQLRLPHMRAAAPELLATAKAQRWDPAEAIRALLTEELAGRQASSINARRK | -0.406 |
| HMREGRERRLSQLLSYLRTHHILTRSEYVKLTGLSPTAASSELKTFVTAGHIVRKGIASHSTYRLPH | -1.71 |
| HMEDPFLWVEKLGSSDWIEREESAEKLLEAGEASVEALRTALTHPDLEVRERVRELLSVISPL | -0.104 |
| HMRILGIDPGYAITGYSIIDYVGNKFKLIDSGAVLTKAGVSFPLRLTKIYDDLSMIIDEYKPDA | -0.207 |
| HMSKHAIQNELEKIEGIGKQTADSLLKEFKSVKKLRTLPLSEIEKVIGKSKATIVFEALHKDK | 0.133 |
| HMKKERITWDERLERFAKYITENESLPYPSSKEHAWFEENKALYDAGELESVRAQSFSFLLKILRRMNLI | -0.278 |
| HMAQFNELLFELRQDRKMTQEDLAKVLFVTSGTISNYENGVHLPDIEKLISLADFFGVTTDYLLG | -0.104 |
| HMDSDIGQQLKILLTVGTFMPSTELKAIAQQFGMKKPTDLKEWVELESDTQRIKGNPTKGYWINEINDL | -0.562 |
| HMKKYEIIFNDLKQSIVNGKYSNEERLPPEETLAKKYQTSRVPVQQALNALVGIGMVKRIAGSGTYVTY | -0.628 |
| HMNLGLTGDPSVLYSILLQRGDSSRADLQRQTGWSLSKTTLVLNQLLAQKLIVQVGAGRSTQYRVIN | -0.983 |
| HMQKVPDAFKAEQVQTLITRLGVSRAELARTLDVSLSTVNKWASGAVEPKGSALVLLKVLWMHGFKAL | -2.14 |
| HMSFNSQENKSVLWQFLLENNFFIGLSDKKFNKVKDIFEKNIQSISIVNDSISNKNKILIQKMMEELELL | -1.88 |
| HMNDELMEQIDEWHKAEKHQEIIDALEQIPEAERDFETTGFLARAYNNIEEYAKAADLLESVRE | 0.0873 |
| HMNGIFEYSDAKKVPSLVEIENAYRRARVNGAEKFAVIINGEYFGYNPQKRGIYKLNDGEYQIL | -0.0706 |
| HMRIWTPEMIKEYIISSNGKEPLNSHYYSTNHPSIYAAAERIFGSWGNAINAAGLDYNAIRKYK | -0.00482 |
| HMSLTYTGKFILNHNNIDQSSFNINIYLVNKQTIIQITKPFYGNVLNIKFNEENDLIISPKQFS | -0.146 |
| HMIGDNNELFQKAQLTPREKEVALLLLQGETNSDIAKILYVGLSTVKKHISSIFEKTKVKSRTEFISKVR | -0.803 |
| HMTIGIGKSLDFNTSGEKAYRIYNFKGAYVGTFKASDMTSLKNEVQKSNVKAGAYMVRSLDGHVNRLIEIK | -0.681 |
| HMSNGEWQQGSDGRWWYKFSDGTYPKNKVETIGGKKYGFDSEGWMLANTTKEFSGTTYSFGADGVATS | 0.158 |
| HMAHLNYQTVDINALIRHSLQLVSQDAQSRGIALQFTPRPELTTISADPDRLNQVLLNLYLNAMQD | -0.334 |
